According to paper PMC6451091, “NextPBM: a platform to study cell-specific transcription factor binding and cooperativity”:

Target: PU.1 (IVT) (UniProt P17947 1-270)
Experiment: PBM; 20 mM HEPES pH 7.9, 100 mM NaCl, 1 mM DTT, 0.2 mg/mL BSA, 0.02% Triton X-100, 2% milk, 0.4 mg/mL salmon testes DNA, 1 h; temperature not stated
Details: protein: ivt; blunt
How it was run: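 Binding is given as a z-score derived from scanned fluorescence that was normalised by linear regression. To obtain it, full-length untagged PU.1 from coupled human in vitro transcription/translation was applied for 1 h to custom double-stranded DNA microarrays of 20-bp genomic sites and single-nucleotide variants, using 10 probes per site with 5 in each orientation. The binding buffer was HEPES pH 7.9 with 100 mM NaCl, 2% milk and salmon testes DNA, and detection used anti-PU.1 and then a fluorescent secondary antibody.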

B1: PBM_PU1_IRF8_v2_2 (dsDNA)
DNA 1: GCCTAGCACGAAAAGGGGAAGTGTATTCCGTGCTAGGTCTTGATTCGCTTGACGCTGCTG
DNA 2: CAGCAGCGTCAAGCGAATCAAGACCTAGCACGGAATACACTTCCCCTTTTCGTGCTAGGC
binding signal: 7.7 z-score

B2: PBM_PU1_IRF8_v2_30 (dsDNA)
DNA 1: GCCTAGCACATTTTAAGGAAGTGAAACCCGTGCTAGGTCTTGATTCGCTTGACGCTGCTG
DNA 2: CAGCAGCGTCAAGCGAATCAAGACCTAGCACGGGTTTCACTTCCTTAAAATGTGCTAGGC
binding signal: 5.72 z-score

B3: PBM_PU1_IRF8_v2_1 (dsDNA)
DNA 1: GCCTAGCACTAAAAGAGGAAGTGGCAGATGTGCTAGGTCTTGATTCGCTTGACGCTGCTG
DNA 2: CAGCAGCGTCAAGCGAATCAAGACCTAGCACATCTGCCACTTCCTCTTTTAGTGCTAGGC
binding signal: 8.16 z-score

B4: PBM_PU1_IRF8_v2_22 (dsDNA)
DNA 1: GCCTAGCACGAAAAGAGGAAGTGGAAACAGTGCTAGGTCTTGATTCGCTTGACGCTGCTG
DNA 2: CAGCAGCGTCAAGCGAATCAAGACCTAGCACTGTTTCCACTTCCTCTTTTCGTGCTAGGC
binding signal: 8.54 z-score

B5: PBM_PU1_IRF8_v2_3 (dsDNA)
DNA 1: GCCTAGCACATAAGGAGGAAGTGGCTGAAGTGCTAGGTCTTGATTCGCTTGACGCTGCTG
DNA 2: CAGCAGCGTCAAGCGAATCAAGACCTAGCACTTCAGCCACTTCCTCCTTATGTGCTAGGC
binding signal: 5.13 z-score

B6: PBM_PU1_IRF8_v2_24 (dsDNA)
DNA 1: GCCTAGCACATAAGGAGGAAGTGAGACAGGTGCTAGGTCTTGATTCGCTTGACGCTGCTG
DNA 2: CAGCAGCGTCAAGCGAATCAAGACCTAGCACCTGTCTCACTTCCTCCTTATGTGCTAGGC
binding signal: 4.54 z-score

B7: PBM_PU1_IRF8_v2_13 (dsDNA)
DNA 1: GCCTAGCACGAAAAGAGGAAGTCAGATTGGTGCTAGGTCTTGATTCGCTTGACGCTGCTG
DNA 2: CAGCAGCGTCAAGCGAATCAAGACCTAGCACCAATCTGACTTCCTCTTTTCGTGCTAGGC
binding signal: 8.24 z-score

B8: PBM_PU1_IRF8_v2_4 (dsDNA)
DNA 1: GCCTAGCACGAAAACAGGAAGTGGACAACGTGCTAGGTCTTGATTCGCTTGACGCTGCTG
DNA 2: CAGCAGCGTCAAGCGAATCAAGACCTAGCACGTTGTCCACTTCCTGTTTTCGTGCTAGGC
binding signal: 7.4 z-score

B9: PBM_PU1_IRF8_v2_5 (dsDNA)
DNA 1: GCCTAGCACAAATAGAGGAAGTCAGAGAGGTGCTAGGTCTTGATTCGCTTGACGCTGCTG
DNA 2: CAGCAGCGTCAAGCGAATCAAGACCTAGCACCTCTCTGACTTCCTCTATTTGTGCTAGGC
binding signal: 6.21 z-score

B10: PBM_PU1_IRF8_v2_23 (dsDNA)
DNA 1: GCCTAGCACCAAATGAGGAAGTGAGACTTGTGCTAGGTCTTGATTCGCTTGACGCTGCTG
DNA 2: CAGCAGCGTCAAGCGAATCAAGACCTAGCACAAGTCTCACTTCCTCATTTGGTGCTAGGC
binding signal: 7.69 z-score

B11: PBM_PU1_IRF8_v2_6 (dsDNA)
DNA 1: GCCTAGCACGAAGAGAGGAAGTGAAATTAGTGCTAGGTCTTGATTCGCTTGACGCTGCTG
DNA 2: CAGCAGCGTCAAGCGAATCAAGACCTAGCACTAATTTCACTTCCTCTCTTCGTGCTAGGC
binding signal: 5.03 z-score

B12: PBM_PU1_IRF8_v2_16 (dsDNA)
DNA 1: GCCTAGCACAATATAGGGAAGTGCTTAACGTGCTAGGTCTTGATTCGCTTGACGCTGCTG
DNA 2: CAGCAGCGTCAAGCGAATCAAGACCTAGCACGTTAAGCACTTCCCTATATTGTGCTAGGC
binding signal: 5.82 z-score
